± gives the standard error. This sample holds only a part of the variants without activity.
B1: glmS ribozyme (parent)
chain: AUAAAAGCGCCAGAACUACAGAAAUGUAGUUGACGAGGAGGAGGUUUAUCGAAUUUUCGGCGGAUGCCUCCAAA

Key:
Settings in all cases: with glucosamine-6-phosphate
glucosamine-6-phosphate [1] = variants of: B1; experiment: self-cleavage kobs at 640 uM GlcN6P; higher = faster cleavage; RNA array
How it was run: (§1)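 Barcoded ribozyme variants on sequenced MiSeq chips were transcribed in situ by E. coli RNA polymerase and followed at 37 °C through a hybridised Cy3 probe. Glucosamine-6-phosphate at 40 μM to 10 mM in HEPES/KCl/Mg(OAc)2 buffer was flowed in, and tiles were imaged over ~14 h. Signals were normalised to baseline and to non-cleaving reference variants, and per-tile medians were fit to one- or two-exponential decays to give kobs. Weighted Michaelis–Menten fits across concentrations gave kcat and KM.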

glucosamine-6-phosphate [2] = variants of: B1; experiment: self-cleavage kobs at 2500 uM GlcN6P; higher = faster cleavage; RNA array
How it was run: as §1

glucosamine-6-phosphate [3] = variants of: B1; experiment: self-cleavage kobs at 10000 uM GlcN6P; higher = faster cleavage; RNA array
How it was run: as §1

| Variant | self-cleavage kobs at 640 uM GlcN6P (glucosamine-6-phosphate [1]) [s⁻¹] | self-cleavage kobs at 2500 uM GlcN6P (glucosamine-6-phosphate [2]) [s⁻¹] | self-cleavage kobs at 10000 uM GlcN6P (glucosamine-6-phosphate [3]) [s⁻¹] |
| --- | --- | --- | --- |
| A42C C67U C71G | < 1e-05 |  |  |
| C10A G43C A53U | < 1e-05 | < 1e-05 |  |
| A12U G13U G32U A64G | < 1e-05 |  |  |
| G7U U49G G51C A64C G66C | < 1e-05 | < 1e-05 |  |
| G32C G35U U46A C68G | < 1e-05 |  |  |
| G32U A33G | < 1e-05 |  |  |
| C10U C50G C68U C71A | 9.29e-05 ± 2.6e-05 | 0.000111 ± 2.9e-05 |  |
| C8G G32U U47G C67G C68G | 0.000105 ± 3.3e-05 | 4.39e-05 ± 2.1e-05 |  |
| G37U A42C U56G | < 1e-05 |  |  |
| A12U G35C C70U | < 1e-05 | < 1e-05 |  |
| G35U G43U G60A | < 1e-05 | < 1e-05 |  |
| A39G A64C U69G C71U | < 1e-05 | < 1e-05 |  |
| G44A A48U U56G | < 1e-05 | < 1e-05 |  |
| C8A G13U C16A A33U U65G C71A | < 1e-05 | < 1e-05 |  |
| C16U A33U U49A | < 1e-05 | < 1e-05 |  |
| C11A G37C U65G | < 1e-05 |  |  |
| U55A G63U C70G | 6.74e-05 ± 2.6e-05 |  |  |
| A6G C58U U69A | 0.000521 ± 0.00019 |  |  |
| C11G A39C | < 1e-05 | < 1e-05 | < 1e-05 |
| G9U G35A G44U A53C C71G | < 1e-05 | < 1e-05 |  |
| G29C A33G G40A U56C | < 1e-05 |  |  |
| U31G G38U A53G C68A C71A | 0.000204 ± 7.6e-05 |  |  |
| A36C U54G G63A | < 1e-05 |  |  |

| Variant | self-cleavage kobs at 640 uM GlcN6P (glucosamine-6-phosphate [1]) [s⁻¹] | self-cleavage kobs at 2500 uM GlcN6P (glucosamine-6-phosphate [2]) [s⁻¹] | self-cleavage kobs at 10000 uM GlcN6P (glucosamine-6-phosphate [3]) [s⁻¹] |
| --- | --- | --- | --- |
| C8U U49A U69G | 0.000871 ± 0.00023 | 0.000796 ± 0.00037 |  |
| G35A G40U C68U | < 1e-05 |  |  |
| A15C C34U G66C | < 1e-05 | < 1e-05 |  |
| A12G A39C A42C | < 1e-05 |  |  |
| C50G C61U C67U | 0.000213 ± 4.4e-05 |  |  |
| G7U C67U C71G | 7.36e-05 ± 2.2e-05 |  |  |
| A15G G51C A52G G62A | < 1e-05 | < 1e-05 |  |
| G9A C10A G13C G29C | < 1e-05 | < 1e-05 |  |
| A14U G62U U69A | < 1e-05 |  |  |
| A39C G51C U56C C70A | < 1e-05 |  |  |
| G7A A15G U30C A48G U57A | < 1e-05 | < 1e-05 |  |
| C34U C68U C70U | < 1e-05 |  |  |
| G32A U54A C68A | 0.000374 ± 0.00012 | 0.000108 ± 4.1e-05 |  |
| C34U G44A A48U U56A G60A | < 1e-05 |  |  |
| A6U C16U U54A | 4.1e-05 ± 1.3e-05 | 0.000121 ± 3e-05 |  |
| C10A A33G U45C G66A C70U | < 1e-05 | < 1e-05 |  |
| G37U G59U G63A | < 1e-05 | < 1e-05 |  |
| C16G G63U | < 1e-05 | < 1e-05 | < 1e-05 |
| A33G A39G G41A | < 1e-05 |  |  |
| A33G G51A U55C C68A | < 1e-05 |  |  |
| G9U G13C G43A | < 1e-05 |  |  |
| A33U C34G U49A A53U | < 1e-05 |  | < 1e-05 |
| G7C C16U G32C G43A C50U | < 1e-05 |  |  |

| Variant | self-cleavage kobs at 640 uM GlcN6P (glucosamine-6-phosphate [1]) [s⁻¹] | self-cleavage kobs at 2500 uM GlcN6P (glucosamine-6-phosphate [2]) [s⁻¹] | self-cleavage kobs at 10000 uM GlcN6P (glucosamine-6-phosphate [3]) [s⁻¹] |
| --- | --- | --- | --- |
| C34G G51A C67U | < 1e-05 |  |  |
| U31G G35C G51U | < 1e-05 |  |  |
| C8U U31G C34U U47A | < 1e-05 |  |  |
| G29U G37A U49A C58G G62U | < 1e-05 |  |  |
| G29A A48U G62C | < 1e-05 |  |  |
| G38A C61A G62C | < 1e-05 | < 1e-05 | < 1e-05 |
| G13C G29A G40C | < 1e-05 |  |  |
| G13U C16G G29A A39G | 0.000103 ± 3.7e-05 | 0.000286 ± 7.5e-05 |  |
| A15C G37C | < 1e-05 |  |  |
| A15U A33U C70U | < 1e-05 |  |  |
| C8A C16U G38A | < 1e-05 |  | < 1e-05 |
| G9U U47A | < 1e-05 | < 1e-05 |  |
| A14G G38C G44A | < 1e-05 | < 1e-05 | < 1e-05 |
| C34U G43U A53G U55A A64U | < 1e-05 | < 1e-05 |  |
| C8G G32C A33U C67U | < 1e-05 | < 1e-05 |  |
| G40A U57A C71U | 6.1e-05 ± 2.3e-05 | 0.000149 ± 3.4e-05 |  |
| G38U C50G A64G | 6.44e-05 ± 2.9e-05 | 3.85e-05 ± 1.7e-05 |  |
| G32U A52U C58U C61U | < 1e-05 | < 1e-05 |  |
| C11U G32C C50G A52U | < 1e-05 |  |  |
| A14C G44C U55C | < 1e-05 |  |  |
| G41U U47G A53U | 9.96e-05 ± 2.8e-05 | 0.000276 ± 6.9e-05 |  |
